Laboratory results as given in patent publication US20160168225A1 (Sanofi, published 2016).
Square brackets hold non-standard residues; d marks the D form. Ends that are not written are not given here. Aib = CC(C)(N)C(=O)O

Biological target: human GLP-1 receptor (human, UniProt P43220 24-463)
Assay: cell-based or functional assay

H[Aib]QGTFTSDLSKQLDEQRA[(S)MeLys]DFIEWLIAGGPSSGAPPPS-NH2 [SEQ ID NO: 14]
EC50 hGLP-1R (cAMP formation, HTRF, HEK-293 cells): 1 pM
